Results published in patent US20150258217A1, “Methods of Synthesizing and Using Peg-Like Fluorochromes” (THE GENERAL HOSPITAL CORPORATION, priority 2012, published 2015).

Columns and labels:
[1] = Quantum yield determination; type: physicochemical
Method: Quantum yields were determined as described in Demas et al., “Measurement of photoluminescence quantum yields. Review”, Journal of Physical Chemistry 75, 991-1024 (1971), and Shao et al., “Facile Synthesis of Monofunctional Pentamethine Carbocyanine Fluorophores. Dyes and pigments: an international journal 90, 119-122 (2011). For IR-783 a reference quantum yield of 0.043 was used (see Li et al., “Synthesis and characterization of glucosamine-bound near-infrared probes for optical imaging”, Organic letters 8, 3623-3626, 2006); for fluorescein a reference quantum yield was […] (see Sjoback et al., “Absorption and florescence properties of fluorescein”, Spectrohimica Acta Part A 51, L7-L21, 1995). For Cy3 a reference quantum yield of 0.31 was used (Luminprobe Inc). For PN(783)'s, excitation was at 730 nm and emission spectra were recorded from 765 nm to 870 nm in PBS and maximum emission used. For PN(545)'s, excitation was at 515 nm and emission spectra were recorded from 538 nm to 700 nm in PBS and maximum emission used. For PN(497)'s, excitation was at 450 nm and emission spectra were recorded from 475 nm to 620 nm in PBS and maximum emission used. Absorbance of each probe was adjusted less than 0.1. Measurements were made in triplicate and are expressed as mean±SD.

[2] = PN and peptide size (volume, diameter) by FPLC gel filtration (Superdex 200, globular protein standards); type: physicochemical; conditions: Table 5; globular protein equivalent molecular weight
Method: DOTA-Lys-Cys(IR783)-NH2 is then dissolved in DMSO, with 2 equivalents of an NHS ester of PEG and 6 equivalents of DIPEA. The reaction was at room temperature for 5 days. Product was purified by reverse phase HPLC separation. Product molecular weight was by matrix-assisted laser desorption ionization time-of-flight mass spectrometry (MALDI-TOF MS), with product molecular volume by size exclusion FPLC using globular protein standards (GE Healthcare life science AKTApurifier 10).
The mass spec of low molecular weights (MW) were obtained by MS-ESI Micromass (Waters) and high MW molecules were determined through MALDI-TOF analyses at the Tufts University Core Facility. RP-HPLC (Varian ProStar detector and delivery modules) employed an eluant A (0.1% TFA/water) and eluant B (0.1% TFA and 9.9% water in acetonitrile). Probe size (volume) was determined by FPLC using an ÄKTA Purifier 10 and Superdex™ 200 10/300GL column (GE Healthcare) with a running buffer of 0.05 M sodium phosphate, 0.15 M NaCl (0.1% Tween, pH 7.2) and flow rate of 0.8 ml/min. Standards (GE Healthcare) were Ferritin, Ribonuclease A, Carbonic Anhydrase, and Conalbumin and Blue Dextran 2000. To obtain probe volumes, Mr (apparent molecular weight based on size exclusion retention) was plotted versus Kav. Kav=(Ve−Vo)/(Vt−Vo), Vt=total volume, Ve=elution volume, Vo=void volume.
The column was calibrated with globular protein standards, and globular protein equivalent molecular weights (in kDa) were obtained (Table 5, column 5). These were converted to PN diameters in nm using the relationship: Radius in nm=[…] where M is the molecular weight of a globular protein expressed in daltons (see Erickson, “Size and Shape of Protein Molecules at the Nanometer Level Determined by Sedimentation, Gel Filtration, and Electron Microscopy”, Biological Procedures Online 2009, 11(1): 32-50). PN's diameters ranged from 3.0 to 11.8 nm (see FIG. 23a). Using PEG's of 5 kDa and 30 kDa, selected for their low polydispersity, PN's were synthesized using IR-783, Cy3 and Fluorescein (see FIG. 22a) and their sizes determined (see FIGS. 23a, 23b, 23c). With the 5 kDa PEG and these three fluorochromes (see the magenta chromatograms in FIGS. 22a, 23b and 23c) PN diameters were 4.3 nm. With the 30 kDa PEG and these three fluorochromes (blue chromatograms, 23a, 23b, 23c), PN diameters were now 10.0 nm. For reference, the diameter of a 67 kDa albumin determined by this method was 5.4 nm.

[3] = system: HT-29, a human colon carcinoma cell line; experiment: PN and peptide binding to cells (non-specific binding, FACS); type: cell-based; conditions: HT-29 cells, 30 min at 37° C., FACS
Method: HT-29, a human colon carcinoma cell line, was from the American Tissue Culture Collection and maintained according to their instructions. Cells were seeded on 24-well plates at 5×10^5 cells/well in culture medium (RPMI 1640 with 10% FBS) the day before the assay. The day of assay, medium was removed, wells rinsed twice with DPBS (+Ca, +Mg), and 100 μl of 2% FBS/DPBS (+Ca, +Mg) added. 100 μL of Nanoprobes (2 μM) in DPBS (+Ca, +Mg) was added to cells and incubated for 30 min at 37° C. (Probe concentrations were determined spectrophotometrically (783 nm, extinction coefficient of 314 471 cm^−1 M^−1 for IR-783; 497 nm, extinction coefficient of 68 000 cm^−1 M^−1 for Fluorescein; 545 nm, extinction coefficient of 150 000 cm^−1 M^−1 for Cy3). Cells were detached by Trypsin/EDTA and assayed for fluorescence by FACS (BD 7 laser LSR2 for nanoprobes with IR-783; BD 3 laser LSR2 for nanoprobes with Fluorescein or Cy3).

[4] = system: mCherry/HT29 tumor sections; experiment: Confocal microscopy of tumor sections (tumor retention phase); type: in vivo, mouse; conditions: 48 hours post IV injection
Method: The mCherry-HT-29 tumor sample was collected at 48 hours post IV injection with PN(497)10.0, and then cryosectioned with thickness of 5 μm. The tumor section was fixed with 4% PFA, mounted with 90% glycerol/10% PBS (at pH 8.5 for best fluorescein fluorescence), and stained with DAPI. Confocal imaging was performed on a Zeiss LSM510 laser scanning confocal microscope (Zeiss Axiophot, Carl Zeiss, Jena, Germany). A 405 nm diode Laser, 488 nm argon laser, and 561 nm diode laser were used for the excitation of DAPI, fluorescein, and mCherry, respectively. A primary dichroic HFT 405/488/561 was used in combination with an LP420 emission filter for DAPI, BP505-530 for fluorescein, and LP575 for mCherry. Images were analyzed with ImageJ64.

[5] = literature/vendor reference value; cited from earlier work
[6] = Probe volume determination by FPLC (Superdex 75, globular protein standards); type: physicochemical
Method: Size (volume) was determined by FPLC using an ÄKTA Purifier 10 and Superdex™ 75 10/300 GL column (GE Healthcare Lifesciences) with a running buffer of 0.05 M sodium phosphate, 0.15 M NaCl (0.1% Tween, pH 7.2) and flow rate of 0.5 ml/min. The protein standards (Gel Filtration Calibration Kit LMW, code no. 28-4038-41, GE Healthcare) (0.3 mg/ml, mixture of Aprotinin, Ribonuclease A, Ovalbumin, and Conalbumin) and Blue Dextran 2000 were used. To obtain volumes, Mr (apparent molecular weight based on size exclusion retention) was plotted versus Kav. Kav=(Ve−Vo)/[…], Vt=total volume, Ve=elution volume, Vo=void volume.

[7] = system: GFP expressing BT-20 breast carcinoma xenograft; experiment: Tumor surface fluorescence after peritumoral (DMR) or IV injection; type: in vivo, mouse; conditions: BT-20 tumors, 24 hours post injection
Method: Day 1, BT-20 cells were planted into 24-well plate at 750,000 cells/well in culture medium (EMEM with 10% FBS). Day 2, the old culture medium was replaced with new culture medium containing lenti-virus (1×10^8 particles/mL) and protamine sulphate (American Pharmaceutical Partners, Los Angelus, Calif.; 10 mg/mL; 1:500 of total volume of medium). Day 3, after 16 hours of transfection, medium was changed to the culture medium (EMEM with 10% FBS). 8 hours later, green cells could be seen via fluorescence microscope.
All animal experiments were approved by the Institutional Review Committee of Massachusetts General Hospital. Female nude mice (25-30 g; 6-8 weeks old; nu/nu; Cox 7, Massachusetts General Hospital, Boston, Mass.) were anesthetized with isoflurane/O2. Tumor cell implantation was performed both sides around the shoulder. 200 μl of cell suspension containing 10^6 cells in Matrigel (BD) was injected subcutaneously. Tumor cells were inoculated for 7 to 10 days.
The diffusion and molecular retention required of the DMR technique with a tumor bearing model were investigated. We peritumorally injected the RGD probe into an animal bearing two GFP expressing BT-20 breast carcinomas and monitored tumor GFP fluorescence and probe fluorescence as a function of time after injection. The non-integrin binding RAD probe was injected into a second animal also bearing two tumors. Overlaying purple probe fluorescence over green GFP yields white. […] Tumor surface fluorescence from both probes was quantified by the use of solution standards.
In FIG. 8a), two animals bearing two tumors were PT injected with the RGD probe or RAD probe as indicated and surface fluorescence images were obtained. […] In FIG. 8b), quantitation of tumor surface fluorescence after injections of the RGD or RAD probes as above. Surface fluorescence was quantified through the use of standard solutions.
To compare the DMR and intravenous (IV) methods, surface fluorescence images of tumor GFP and RGD probe fluorescence were obtained with skin removed, and overlays from the two signals obtained. With both DMR and IV administration, probe fluorescence extended beyond tumor GFP margins to a stromal area beyond the tumor. However, tumor fluorescence was far higher with DMR than IV injection, even though dose was far lower (50 pmoles/mouse by DMR versus 2000 pmoles/mouse by IV).
In FIG. 9a), skin covering GFP-BT-20 tumor was removed. Shown are visible GFP fluorescence, probe (CyAL5.5) fluorescence, and the overlay of GFP and probe fluorescence plus an X-ray image. Green GFP plus purple CyAL5.5 fluorescence yielded a white overlaid image. In FIG. 9b), with DMR or IV, probe fluorescence included a stromal zone of integrin binding surrounding the tumor was seen. […]

[8] = Diffusion and elimination after intramuscular administration (surface fluorescence); type: in vivo; conditions: nude mouse, front extremity, 24 hours post injection
Method: The diffusion and elimination of the non-integrin binding RAD probe after an intramuscular administration in the front extremity of a nude mouse was visualized. Using surface fluorescence, the probe rapidly diffused through the extremity and shoulder of the mouse, with vascular uptake and renal elimination evident from bladder fluorescence at 4 hours post injection.

Substance: (DOTA)Lys(PEG30K)-Cys(Cy3) [PN(545)10.0]
- Quant. Yield ([1]; Table 5, in PBS): 0.61
- Volume FPLC [2]: 435 kDa
- Cell NSB (percent of cells with fluorescence higher than unstained cell) [3]: 15%
- cellular localisation in tumor sections [4]: seen in mCherry/HT29 cells

Substance: Cy3
- reference quantum yield [5]: 0.31

Substance: DOTA-Lys(CyAL5.5)-Lys(5 kDa PEG)- βAla -Lys(sPEG-RAD) [Compound 7b]
- Equiv. Vol. ([6]; FPLC, globular protein equivalent volume): 25 kDa
- Molecular Volume ([6]; Table 3A, tetrapeptides): 20 kDa
- Molecular Volume ([6]; Table 4, DMR probes): 20-30 kDa
- Quantum Yield ([1]; Table 3A, CyAL5.5 tetrapeptides): 0.20
- Quantum Yield ([1]; Table 4, DMR probes): 0.20
- tumor retention of probe fluorescence after peritumoral injection [7]: cleared by 24 hours post injection
- clearance from intramuscular injection site [8]: detectable fluorescence was not found
